What was measured:
[1] = molecular target: T1, HigA2 (Mycobacterium tuberculosis H37Rv) (UniProt O53467); assay: EMSA; conditions: EMSA: 20 mM Tris-HCl, 150 mM NaCl, pH 8.0, 37 °C, 5 min, HigA2 1 uM (titrated in Fig 4); agarose or native PAGE. Pull-down: streptavidin beads, 4 °C, PBS …
T1 sequence: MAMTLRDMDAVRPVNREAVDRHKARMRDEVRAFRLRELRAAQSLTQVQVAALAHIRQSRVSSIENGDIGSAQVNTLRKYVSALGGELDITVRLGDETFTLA

HigA2 = molecular target: T2, HigA2 (Mycobacterium tuberculosis H37Rv, UniProt O53467 1-101); assay: EMSA; essentially complete binding; 1 uM DNA; EMSA: 20 mM Tris-HCl, 150 mM NaCl, pH 8.0, 37 °C, 5 min, HigA2 1 uM (titrated in Fig 4); agarose or native PAGE. Pull-down: streptavidin beads, 4 °C, PBS washes; conditions: protein: recombinant; tags: C-terminal 6xHis; chain copies: 2; blunt
T2 sequence: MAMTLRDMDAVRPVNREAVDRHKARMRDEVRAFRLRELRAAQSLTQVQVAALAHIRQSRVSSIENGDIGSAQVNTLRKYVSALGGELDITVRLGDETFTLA

higB2 40 bp gave a binding signal [1] of 5 µM.

“GGCACAGGCTACTGTTTCAACGGCCCGGGTGCGCAGAGTCCGTCCTCGCCTGCCGGCATTTCCTCGACGGTAGCCCCGTCGCCCGCTGCTCTTACCCGGAGGAATATCACCCTTGTGTGATATCGCGTATCGCGCTACTCTGCGACTCTGTGGGGTGGACGGCGGATGTGGAGCGCATCTCCGCCTGGCTCAACGGCTTGGACCGAGAGACCTACGAATTGGTGTTCGCAGCTATCG (double strand) [seq4]” was tested, and the binding [1] was “binds”.

For “CGCTGCTCTTACCCGGAGGAATATCACCCTTGTGTGATATCGCGTATCGCGCTACTCTG (double strand) [seq6]”, the binding [1] was “binds”.

B1: Rv2044c-40bp (dsDNA)
DNA 1: TGTCGCTCACTACATCACCGGCGTGATCTATCCCGCCGGT
DNA 2: ACCGGCGGGATAGATCACGCCGGTGATGTAGTGAGCGACA
B1 gave a binding signal (HigA2) of ~5 µM.

B2: Rv0258c-40bp (dsDNA)
DNA 1: CATGGTGTCAGGATCACCCCGCTGTGATCAAAGATCAAGC
DNA 2: GCTTGATCTTTGATCACAGCGGGGTGATCCTGACACCATG
B2 showed a binding signal (HigA2) of ~5 µM.

B3: Rv0010c-40bp (dsDNA)
DNA 1: CAGTGGGGATGAATCACATGCGTGTGATTGAGTGACCAAA
DNA 2: TTTGGTCACTCAATCACACGCATGTGATTCATCCCCACTG
Work on B3 yielded a binding signal (HigA2) of ~8 µM.

B4: Rv1733c-40bp (dsDNA)
DNA 1: GTGTTGCTGTCGATCACCCCCTCGTGATCGATCACGGTCG
DNA 2: CGACCGTGATCGATCACGAGGGGGTGATCGACAGCAACAC
Molecule B4 has a binding signal (HigA2) of ~8 µM.

B5: Rv3396c-40bp (dsDNA)
DNA 1: TGTGGGGTGTGCATCACCTCCGGGTGATACTGCACCCCGG
DNA 2: CCGGGGTGCAGTATCACCCGGAGGTGATGCACACCCCACA
B5 gave a binding signal (HigA2) of ~8 µM.

B6: Rv0086-40bp (dsDNA)
DNA 1: CGCCATCGCCGATATCACCGGCGTGATGCGACGGTCGCGG
DNA 2: CCGCGACCGTCGCATCACGCCGGTGATATCGGCGATGGCG
With B6 the binding signal (HigA2) was ~20 µM.

B7: Rv2434c-40bp (dsDNA)
DNA 1: GGTTCCCATGGGTATCACCTTCGTGATCGCCGGCAGCGTG
DNA 2: CACGCTGCCGGCGATCACGAAGGTGATACCCATGGGAACC
B7 was tested, and the binding signal (HigA2) was ~20 µM.

— article PMC11205783, “HigA2 (Rv2021c) Is a Transcriptional Regulator with Multiple Regulatory Targets in Mycobacterium tuberculosis”
